Measurements reported in patent US20240245795A1, “PREPARATION METHOD AND APPLICATION OF ANTIBODY DRUG CONJUGATE” (priority 2021, published 2024).

System: Human lung squamous carcinoma cells NCI-H2170
Test: In vivo anti-tumor experiment (5), NCI-H2170 xenograft
Design: species or system female nude mice
Settings: 5 mg/kg i.v. single dose
Method: Human lung squamous carcinoma cells NCI-H2170 (ATCC) were suspended in physiological saline. 4×10^7 cells were subcutaneously transplanted into the right flank of female nude mice, which were randomized into groups on day 6. Taking the grouping day as day 0, Antibody Conjugate 13, DS-1062a (the positive control drug) and the hIgG-A-11 conjugate as a negative control group were administered intravenously to the tail at a dose of 5 mg/kg respectively on day 0.

B1: DS-1062a (conjugate, chains of the INN, looked up)
VH: QVQLVQSGAEVKKPGASVKVSCKASGYTFTTAGMQWVRQAPGQGLEWMGWINTHSGVPKYAEDFKGRVTISADTSTSTAYLQLSSLKSEDTAVYYCARSGFGSSYWYFDVWGQGTLVTVSS
VL: DIQMTQSPSSLSASVGDRVTITCKASQDVSTAVAWYQQKPGKAPKLLIYSASYRYTGVPSRFSGSGSGTDFTLTISSLQPEDFAVYYCQQHYITPLTFGQGTKLEIK
modifications: deruxtecan payload
Q: B1 was tested. Which anti-tumor activity did it give?
A: showed anti-tumor activity
